Like-named read-outs stand apart in the source and are kept apart here. Square brackets hold non-standard residues; d marks the D form. Ends that are not written are not given here. Peptide text beside a SMILES is read from it.
Columns and labels:
Proteinase K (ProtK) = target: T1, Proteinase K (ProtK) (Parengyodontium album, UniProt P06873); assay: in vitro; format: in vitro ADME
T1 construct: purchased Bioshop
Procedure: Stocks of 20 μM peptide in 200 μL total volume (10 mM Tris-base, 10 mM NaCl, pH 7.4) were supplemented with 5 μM CaCl2) and 30 uL removed for the untreated T0 sample. Proteinase K (ProtK, Bioshop) was then added to a final concentration of 100 μg/mL. Samples were incubated at 37° C. and 30 μL removed after each time point and protease activity blocked by the addition of 10 mM PMSF (200 mM stock dissolved in isopropanol). Protease inactivated samples were frozen at −20° C. until further use. Digestions were repeated three times. Frozen samples were supplemented with 8 μL sample loading buffer (4× NuPAGE, ThermoFisher Scientific), boiled ([…]) for 10 minutes, and centrifuged (12 000 rpm, 10 min) prior to loading the gel (12% NuPAGE Bis-Tris (ThermoFisher Scientific) with MES running buffer). Gels were run at 200 V for […] and stained using Coomassie Brilliant Blue dye. Densitometry of bands was determined using ImageJ software (40) with back ground subtraction. All samples were normalized to their respective untreated sample (T0).

[1] = target: T2, parathyroid receptor (PTH1R) (Homo sapiens, UniProt Q03431); assay: CRE-luciferase reporter assay in HEK293 cells stably expressing PTH1R; format: cell-based
T2 construct: expressed in transfected cells; host or cells: HEK293
T2 sequence (Q03431 27-593): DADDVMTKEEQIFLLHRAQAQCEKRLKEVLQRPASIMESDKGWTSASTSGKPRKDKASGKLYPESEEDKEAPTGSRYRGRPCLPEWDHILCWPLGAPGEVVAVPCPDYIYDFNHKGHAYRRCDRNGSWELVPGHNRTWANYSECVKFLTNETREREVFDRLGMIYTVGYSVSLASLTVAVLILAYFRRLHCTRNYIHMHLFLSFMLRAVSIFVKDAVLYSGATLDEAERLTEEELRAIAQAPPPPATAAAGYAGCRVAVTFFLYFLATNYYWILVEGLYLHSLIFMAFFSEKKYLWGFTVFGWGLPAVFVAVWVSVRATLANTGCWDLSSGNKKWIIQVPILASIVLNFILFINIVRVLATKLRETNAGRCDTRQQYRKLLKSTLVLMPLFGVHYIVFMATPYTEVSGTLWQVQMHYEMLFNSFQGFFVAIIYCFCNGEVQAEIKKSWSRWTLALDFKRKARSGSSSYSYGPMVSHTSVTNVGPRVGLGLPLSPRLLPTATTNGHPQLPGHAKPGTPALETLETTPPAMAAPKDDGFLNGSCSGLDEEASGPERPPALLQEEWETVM
Procedure: This activates protein kinase A (PKA) to phosphorylate and activate cAMP response element-binding protein (CREB). […] All of the (L)-PTH is degraded in under 1 hr, while more than 85% of the (D)-analog is still detectable at 6 hours.
(a) (L)-PTH structure and sequence with hotspots highlighted in grey and junctions in black. (b) (D)-PDB match structures and sequences. (c) Final (D)-PTH construction from match sequences and RI (d) HEK293 cells stably expressing PTH1R and CRE-luciferase were stimulated with different concentrations of (L)-, (D)-PTH peptides and Forskolin. Luciferase activity was measured. The experiments were performed in triplicate. (e) Sample gel images of (L)- and (D)-PTH peptides treated with Proteinase K (ProtK) over 5 hours. Gels were stained with Coomassie Brilliant Blue dye and band densitometry calculated using ImageJ (40) with background subtraction. (f) Quantification of remaining peptide post ProtK treatment in […] intervals. Intensity of peptide bands were normalized to the intensity of the untreated peptide (T0) and converted to a percentage relative to T0. […] Error bars are reporting standard error. Data represent the average of 3 independent experiments.

pCDNA3.1 HEK293 cells = assay: CRE-luciferase reporter assay in control pCDNA3.1 HEK293 cells; format: cell-based; conditions: pCDNA3.1 HEK293 cells without GLP1 receptor
[2] = FDA approved peptide drugs, Table 1; cited from earlier work
GLP1 receptor (GLP1R) = GLP1 receptor (GLP1R) (human, UniProt P43220 24-463); assay: cell-based or functional assay

T1 sequence (P06873 106-384): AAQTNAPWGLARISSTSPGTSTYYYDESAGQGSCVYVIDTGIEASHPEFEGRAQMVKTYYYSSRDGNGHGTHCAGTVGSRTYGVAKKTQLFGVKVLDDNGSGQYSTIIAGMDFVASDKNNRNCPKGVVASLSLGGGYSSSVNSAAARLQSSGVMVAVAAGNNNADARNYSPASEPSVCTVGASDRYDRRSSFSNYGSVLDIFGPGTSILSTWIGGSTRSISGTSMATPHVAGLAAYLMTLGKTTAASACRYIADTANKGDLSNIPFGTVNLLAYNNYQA

**Q.** For CC[C@@H](C)[C@@H](NC(=O)[C@@H](C)NC(=O)[C@@H](CCC(=O)O)NC(=O)[C@H](NC(=O)[C@@H](CC(C)C)NC(=O)[C@@H](CCC(=O)O)NC(=O)CNC(=O)[C@@H](C)NC(=O)[C@@H](C)NC(=O)[C@@H](CC(C)C)NC(=O)[C@H](NC(=O)[C@@H](Cc1ccccc1)NC(=O)[C@@H](CC(C)C)NC(=O)[C@@H](CCC(=O)O)NC(=O)[C@@H](CC(C)C)NC(=O)[C@@H](Cc1ccccc1)NC(=O)[C@@H](C)NC(=O)[C@@H](CCCCN)NC(=O)CNC(=O)[C@H](N)CCCNC(=N)N)[C@H](C)CC)[C@H](C)CC)C(=O)N[C@H](CC(=O)O)C(=O)N[C@H](CCCNC(=N)N)C(=O)N[C@@H](C(=O)N[C@H](Cc1ccccc1)C(=O)N[C@@H](C(=O)NCC(=O)N[C@H](CCC(=O)O)C(=O)N[C@H](C)C(=O)N[C@H](Cc1c[nH]cn1)C(=O)O)[C@H](C)O)[C@H](C)O [(D)-GLP1] (H-[dR]G[dK][dA][dF][dL][dE][dL][dF][dI][dL][dA][dA]G[dE][dL][dI][dE][dA][dI][dD][dR][dT][dF][dT]G[dE][dA][dH]-OH; N-terminus and C-terminus assumed), which “degradation by ProtK (in words)” value (Proteinase K (ProtK)) is on record?
**A.** The value was “persists after 5 hours”.

**Q.** With CC[C@@H](C)[C@@H](NC(=O)[C@@H](CCC(=O)O)NC(=O)[C@@H](CCCNC(=N)N)NC(=O)[C@@H](CCSC)NC(=O)[C@@H](CC(C)C)NC(=O)[C@@H](CC(=O)O)NC(=O)CNC(=O)[C@@H](CCCCN)NC(=O)[C@@H](Cc1c[nH]cn1)NC(=O)[C@@H](CC(N)=O)NC(=O)[C@@H](CCCNC(=N)N)NC(=O)[C@@H](Cc1c[nH]c2ccccc12)NC(=O)[C@@H](CCC(=O)O)NC(=O)[C@H]1CCCN1C(=O)[C@@H](CC(C)C)NC(=O)[C@@H](Cc1ccc(O)cc1)NC(=O)[C@@H](CCSC)NC(=O)[C@@H](CC(C)C)NC(=O)[C@@H](CC(C)C)NC(=O)[C@@H](CCSC)NC(=O)CNC(=O)[C@H](NC(=O)[C@@H](CO)NC(=O)[C@@H](CC(=O)O)NC(=O)[C@@H](C)NC(=O)[C@H](NC(=O)[C@@H](C)NC(=O)[C@@H](CC(C)C)NC(=O)CNC(=O)[C@@H](C)N)C(C)C)C(C)C)C(=O)N[C@H](CCCNC(=N)N)C(=O)N[C@H](CO)C(=O)N[C@H](CCCNC(=N)N)C(=O)N[C@H](CCCCN)C(=O)N[C@@H](C(=O)N[C@H](CO)C(=O)O)C(C)C [(D)-PTH] (H-[dA]G[dL][dA][dV][dA][dD][dS][dV]G[dM][dL][dL][dM][dY][dL][dP][dE][dW][dR][dN][dH][dK]G[dD][dL][dM][dR][dE][dI][dR][dS][dR][dK][dV][dS]-OH; N-terminus and C-terminus assumed) as the molecule, how does the “degradation by ProtK (in words)” value (Proteinase K (ProtK)) read?
**A.** Its value is “persists after 5 hours”.

**Q.** And the “activation of PTH1R, potency and efficacy (in words)” value [1]?
**A.** Its value is “potency and efficacy comparable to (L)-PTH and Forskolin”.

**Q.** Which “luciferase expression (in words)” value (pCDNA3.1 HEK293 cells) does the source give for CC[C@H](C)[C@H](NC(=O)[C@H](Cc1ccccc1)NC(=O)[C@H](CCC(=O)O)NC(=O)[C@H](CCCCN)NC(=O)[C@H](C)NC(=O)[C@H](C)NC(=O)[C@H](CCC(N)=O)NC(=O)CNC(=O)[C@H](CCC(=O)O)NC(=O)[C@H](CC(C)C)NC(=O)[C@H](Cc1ccc(O)cc1)NC(=O)[C@H](CO)NC(=O)[C@H](CO)NC(=O)[C@@H](NC(=O)[C@H](CC(=O)O)NC(=O)[C@H](CO)NC(=O)[C@@H](NC(=O)[C@H](Cc1ccccc1)NC(=O)[C@@H](NC(=O)CNC(=O)[C@H](CCC(=O)O)NC(=O)[C@H](C)NC(=O)[C@@H](N)Cc1c[nH]cn1)[C@@H](C)O)[C@@H](C)O)C(C)C)C(=O)N[C@@H](C)C(=O)N[C@@H](Cc1c[nH]c2ccccc12)C(=O)N[C@@H](CC(C)C)C(=O)N[C@H](C(=O)N[C@@H](CCCCN)C(=O)NCC(=O)N[C@@H](CCCNC(=N)N)C(=O)O)C(C)C [(L)-GLP1] here?
**A.** The value was “inactive”.

**Q.** For CC(C)C[C@H](NC(=O)[C@H](CCCCN)NC(=O)CNC(=O)[C@H](CC(C)C)NC(=O)[C@@H](NC(=O)[C@@H]1CSSC[C@H](N)C(=O)N[C@@H](CO)C(=O)N[C@@H](CC(N)=O)C(=O)N[C@@H](CC(C)C)C(=O)N[C@@H](CO)C(=O)N[C@@H]([C@@H](C)O)C(=O)N1)C(C)C)C(=O)N[C@@H](CO)C(=O)N[C@@H](CCC(N)=O)C(=O)N[C@@H](CCC(=O)O)C(=O)N[C@@H](CC(C)C)C(=O)N[C@@H](Cc1c[nH]cn1)C(=O)N[C@@H](CCCCN)C(=O)N[C@@H](CC(C)C)C(=O)N[C@@H](CCC(N)=O)C(=O)N[C@H](C(=O)N[C@@H](Cc1ccc(O)cc1)C(=O)N1CCC[C@H]1C(=O)N[C@@H](CCCNC(=N)N)C(=O)N[C@H](C(=O)N[C@@H](CC(N)=O)C(=O)N[C@H](C(=O)NCC(=O)N[C@@H](CO)C(=O)NCC(=O)N[C@H](C(=O)N1CCC[C@H]1C(N)=O)[C@@H](C)O)[C@@H](C)O)[C@@H](C)O)[C@@H](C)O [Calcitonin], which t½ [2] is on record?
**A.** The t½ was 0.967 h.

**Q.** With CC[C@H](C)[C@H](NC(=O)[C@H](Cc1ccccc1)NC(=O)[C@H](CC(=O)O)NC(=O)[C@H](CCCNC(=N)N)NC(=O)[C@H](C)NC(=O)[C@H](C)NC(=O)[C@H](CC(C)C)NC(=O)[C@H](CC(N)=O)NC(=O)[C@H](CC(=O)O)NC(=O)[C@H](CC(C)C)NC(=O)[C@@H](NC(=O)[C@@H](NC(=O)[C@H](CC(N)=O)NC(=O)[C@H](CCSC)NC(=O)[C@H](CCC(=O)O)NC(=O)[C@H](CC(=O)O)NC(=O)[C@H](CO)NC(=O)[C@H](Cc1ccccc1)NC(=O)[C@H](CO)NC(=O)CNC(=O)[C@H](CC(=O)O)NC(=O)CNC(=O)[C@@H](N)Cc1c[nH]cn1)[C@@H](C)O)[C@@H](C)CC)C(=O)N[C@@H](CC(N)=O)C(=O)N[C@@H](Cc1c[nH]c2ccccc12)C(=O)N[C@@H](CC(C)C)C(=O)N[C@H](C(=O)N[C@@H](CCC(N)=O)C(=O)N[C@H](C(=O)N[C@@H](CCCCN)C(=O)N[C@H](C(=O)N[C@H](C(=O)N[C@@H](CC(=O)O)C(=O)O)[C@@H](C)O)[C@@H](C)CC)[C@@H](C)O)[C@@H](C)CC [Teduglutide] as the molecule, how does the t½ [2] read?
**A.** The t½ was 1.33 h.

**Q.** With “(L)-GLP-2: native GLP-2, gastrointestinal peptide” as the molecule, how does the “time until all peptide is degraded” value (Proteinase K (ProtK); exposure to ProtK, 37° C.) read?
**A.** Its value is “about 1 hr”.

**Q.** And the “degradation by ProtK (in words)” value (Proteinase K (ProtK); treatment with ProtK over 5 hours)?
**A.** Its value is “rapid degradation”.

**Q.** Which “degradation by ProtK (in words)” value (Proteinase K (ProtK)) does the source give for “(L)-PTH: native parathyroid hormone, residues 1-34” here?
**A.** Its value is “rapid degradation”.

**Q.** What about the “time until all peptide is degraded” value (Proteinase K (ProtK)) of the same molecule?
**A.** Its value is “under 1 hr”.

**Q.** For Glucagon, which t½ [2] is on record?
**A.** The t½ was 0.25 h.

**Q.** With Parathyroid Hormone as the molecule, how does the t½ [2] read?
**A.** The t½ was 3 h.

**Q.** Which t½ [2] does the source give for Sermorelin here?
**A.** The t½ was 0.2 h.

**Q.** With “Thymosin (Ac-SDAAVDTSSEITTKDLKEKKEVVEEAEN; UniProt P06454 2-29, looked up) [FDA approved peptide drug, hepatitis, cancer]” as the molecule, how does the t½ [2] read?
**A.** The t½ was 2 h.

B1: (D)-GLP1 peptide (designed binder)
peptide: [dR]G[dK][dA][dF][dL][dE][dL][dF][dI][dL][dA][dA]G[dE][dL][dI][dE][dA][dI][dD][dR][dT][dF][dT]G[dE][dA][dH]
**Q.** With B1 as the molecule, how does the “EC50, CRE-luciferase expression” value (GLP1 receptor (GLP1R)) read?
**A.** Its value is 2.2 µM.

**Q.** And the “potency relative to the native peptide” value (GLP1 receptor (GLP1R))?
**A.** The value was ~40 fold lower.

Source: US20210057047A1, “IN-SILICO METHOD FOR DESIGNING A (D)-POLYPEPTIDE LIGAND” (THE GOVERNING COUNCIL OF THE UNIVERSITY OF TORONTO, priority 2018, published 2021)
